# According to the RNAGym collection of RNA variant scans (doi:10.7554/elife.80360):
# B1: HDV Ribozyme (parent)
# chain: GGCCGGCAUGGUCCCAGCCUCCUCGCUGGCGCCGGCUGGGCAACAUUCCGAGGGGACCGUCCCCUCGGUAAUGGCGAAUGGGACCCA
# Variants of: B1
# Assay: self-cleavage, relative activity (ratio to wild type); higher = more cleavage; co-transcriptional
row,Variant,self-cleavage
1,U46G G52U,0.237
2,A45U C48G,0.739
3,U46G G74C,0.201
4,A45C C57G,0.851
5,U46C U47G,0.703
6,A43U G82A,0.0811
7,A43G C49A,0.554
8,A43G G55U,0.378
9,A43G G55C,0.743
10,A45U A56C,0.806
11,C44U A77C,0.277
12,A45C A87C,0.554
13,U46G C61A,0.617
14,A43G U69C,0.302
15,U46G A71U,0.731
16,A45U U72C,1.02
17,C44G C58U,0.751
18,U46C C86G,0.852
19,A45G U69A,0.895
20,A45U U46C,0.665
21,A45U U46G,0.787
22,A45C C63A,0.748
23,A45C C63U,0.727
24,A45C C63G,0.427

row,Variant,self-cleavage
1,A43U A56G,0.665
2,A45U G73A,0.616
3,A45U G73U,0.302
4,A43U C62G,0.332
5,A43U C62U,0.394
6,U46C G81A,0.208
7,A43G U72C,0.434
8,U46C C58G,0.582
9,U47A A71U,0.657
10,U47A A71C,0.85
11,A45U A70G,0.808
12,C44A C84U,0.431
13,C44G G74C,0.185
14,U46C C75U,0.0755
15,U46C C75A,0.0536
16,A45C A71C,0.831
17,A45C G54A,0.597
18,A45U C85U,0.877
19,A43G C64A,0.612
20,A43G C85A,0.44
21,A43G C85U,0.446
22,C44A G59C,0.796
23,C44A G59A,0.762
24,A45G U72A,0.604

row,Variant,self-cleavage
1,A45G U72C,0.87
2,A43G G59A,0.811
3,U46A G67U,0.789
4,U46A G82C,0
5,A43G U47G,0.997
6,U46C G80A,0.185
7,A45C C66G,0.587
8,A45U G53A,0.997
9,C44G A56U,0.734
10,U46C A78C,0.0426
11,U46C A78G,0.554
12,U46C G59C,0.965
13,U46G U60C,0.665
14,U46A C58G,0.712
15,A43G G67C,0.465
16,U46A G54A,0.763
17,C44G G80A,0.223
18,A45G C62U,1.03
19,C44A A45C,0.692
20,C44G G53A,0.665
21,U46C G68U,0.719
22,C44U C62G,0.464
23,U46A C49A,0.665
24,C44A C75A,0.359

row,Variant,self-cleavage
1,C44A C75U,0.218
2,U46G C85G,0.665
3,A45G U60A,0.866
4,C44U G52U,0.82
5,A45U A87C,0.783
6,C44G A83G,0.233
7,U46C C84U,0.485
8,U46G G67U,0.302
9,A45U U69G,0.855
10,A45U U69C,0.959
11,A45C G81C,0.0489
12,A45U G68C,0.706
13,A45G G68A,0.867
14,A45G G68U,0.804
15,C44U C86G,0.928
16,U46G C48U,0.751
17,A45G G54A,0.814
18,A43C U79G,0.227
19,A43C U79C,0.113
20,A43C U79A,0.0791
21,A45U C57G,0.831
22,U46C G52C,0.72
23,A45G A71C,1.01
24,A45G A71G,0.831

row,Variant,self-cleavage
1,U46G G59A,1.09
2,C44A A87U,0.686
3,U46G G50C,0.429
4,A45C C49A,0.72
5,U46G C63U,0.813
6,U46G G76U,0.73
7,U46G U47G,0.262
8,A43G G68U,0.436
9,U46C A70G,1.03
10,C44G U79G,0.196
11,U46G C86G,1.01
12,A43U G73C,0.43
13,A43U G73A,0.322
14,C44A A83G,0.443
15,C44G C48G,0.575
16,C44G C75A,0.406
17,C44A C58A,1.01
18,U46C A83C,0.237
19,C44A G55C,0.831
20,C44A U72G,0.431
21,U46G C66A,0.308
22,U46G C66G,0.633
23,A43U U47G,0.361
24,U46G G53U,0.262

row,Variant,self-cleavage
1,A45U G82C,0.0898
2,U46G G81U,0.249
3,A43G C61G,0.739
4,A45U G67A,0.717
5,A45U G67C,0.719
6,C44U U47G,0.677
7,C44U U47C,0.54
8,C44A G53C,0.686
9,U46G C84A,0.554
10,A45G U47C,0.787
11,A43G C44G,0.798
12,A43G C44U,0.884
13,U46A G81C,0.312
14,A43U G52C,0.743
15,A43U G52U,0.339
16,A43U C61U,0.302
17,U46G G73A,0.831
18,C44U C48U,0.898
19,U46A C66A,0.727
20,C44U G59U,0.854
21,C44U G59A,0.819
22,C44G A87U,0.675
23,C44G U69A,0.657
24,C44G U69C,0.776

row,Variant,self-cleavage
1,A43G C62U,0.646
2,A43G C62G,0.415
3,A43U C57U,0.631
4,A45G U65A,0.767
5,A45G U65G,0.782
6,A43U G76A,0.554
7,C44G C86U,0.897
8,A45C A56G,0.615
9,U46C A56C,0.609
10,A45G A56G,0.997
11,A45C G59U,0.507
12,U46A C48A,0.665
13,A45U C63G,0.63
14,C44U C58G,0.712
15,U46G C49A,0.391
16,A43G G81C,0
17,A45C U79A,0.208
18,U46G C62A,0.575
19,C44U A70G,0.793
20,C44U A70U,0.955
21,A45G A83C,0.482
22,A45C C62A,0.584
23,A45C C62G,0.391
24,C44U U72A,0.678

row,Variant,self-cleavage
1,A43U A78G,0.262
2,A43U A78U,0.0489
3,U46A C61A,0.8
4,C44U A87G,0.554
5,A45C U65G,0.745
6,A45G C85G,0.88
7,A45G C85A,1.01
8,A45G C57A,0.979
9,A45C G82A,0.208
10,U46C G82U,0.138
11,C44U A83C,0.314
12,A43U A71G,0.405
13,A45G U46A,0.806
14,A45G U46C,0.511
15,A45U G76A,0.578
16,A45U G76C,0.689
17,A43U C64U,0.588
18,A43U C64G,0.506
19,A43U G81C,0.181
20,A43U C84A,0.346
21,A45C A78C,0.135
22,A43G C58A,0.629
23,A43G C58G,0.72
24,C44G A71G,0.646

row,Variant,self-cleavage
1,A45C A83G,0.23
2,A45U C61A,0.928
3,U46C C66A,0.849
4,U46C C57G,1.04
5,U46C C48A,0.89
6,U46C C48G,1.18
7,A45G C48A,1.27
8,A43U C85G,0.609
9,A43U G55C,0.399
10,A43U G55A,0.537
11,U46A C62G,0.289
12,A43G A51G,0.26
13,A43G G80C,0.208
14,C44U C85U,0.954
15,C44U C85A,0.814
16,A43G G76C,0.58
17,A43G G76U,0.892
18,A45G G50C,0.989
19,A45G G50U,1.16
20,A45C C48U,0.642
21,A45C C48A,0.779
22,A45G C64A,0.658
23,A43G C63A,0.642
24,A43G C63G,0.604

row,Variant,self-cleavage
1,A45U C62G,0.798
2,C44G G54A,0.831
3,C44G G54C,0.831
4,C44U A78G,0.242
5,A43U G74C,0.125
6,C44A U69G,0.609
7,C44G U72C,0.198
8,A45C C61U,0.796
9,A45C C61A,0.671
10,U46A C57G,0.617
11,C44U U46A,0.767
12,A45G C63A,0.872
13,A43U C48G,0.435
14,A43U C66U,0.575
15,U46G A77C,0.0875
16,C44U U65G,0.812
17,A43U C44A,1.16
18,A45C U69A,0.987
19,C44G C61A,0.724
20,C44G C61U,0.378
21,A45C G80A,0.187
22,A45C G80U,0.0678
23,C44U C61A,0.751
24,C44U C61U,0.716

row,Variant,self-cleavage
1,A45U A71G,0.872
2,C44G A45C,0.578
3,U47A A77C,0
4,U47A A77U,0.516
5,C44U A56C,1.04
6,C44U A56G,0.939
7,A45G U79G,0.317
8,A45C C86U,0.779
9,C44U G82U,0.282
10,C44U G82A,0.363
11,U46A G73A,0.554
12,U46A G73C,0.317
13,A45G G80C,0.415
14,C44G C66U,0.694
15,C44U U60A,0.594
16,A45G A77U,0.482
17,C44G C62A,0.875
18,C44U G55U,0.831
19,A45U G80C,0
20,A45C G55U,0.525
21,A45C G55A,0.554
22,C44A G76A,0.873
23,A45C G67A,0.719
24,A43G A45G,0.554

row,Variant,self-cleavage
1,A45C A51G,0.587
2,U46C C63G,0.72
3,A45U A78C,0.13
4,A43U C63A,0.716
5,A43G A77U,0.0504
6,U46C G50A,0.698
7,U46C G50C,0.932
8,C44A C64U,0.665
9,A43G C84G,0.201
10,A43G C84A,0.712
11,A43U G53C,0.508
12,C44U A45G,0.739
13,A43U G50A,0.47
14,C44G G82U,0.232
15,A43G A83C,0.268
16,A45U C84U,0.623
17,A45U C84G,0.332
18,A43U G54A,0.487
19,A45G G81C,0.147
20,A45G G81U,0.208
21,A45C G53C,0.755
22,U46A G76C,0.665
23,A45G G52U,0.731
24,C44A A71C,0.332

row,Variant,self-cleavage
1,C44U C64G,0.862
2,U46C U65C,1.2
3,U46A C86U,0.594
4,C44A G74U,0.702
5,C44U C84A,0.614
6,A45G A78U,0.225
7,C44A C85G,0.629
8,A43U A45U,0.594
9,C44U C75A,0.108
10,A43U G59U,0.783
11,A45U U65G,0.615
12,A45G G67U,0.933
13,A45G G67A,0.678
14,A43G U65A,0.554
15,A45C U47G,0.95
16,C44G G50U,0.767
17,C44G G50C,0.739
18,U46C C62G,0.249
19,U46A G50A,0.658
20,U46A A71G,0.895
21,C44A G50C,0.702
22,U46A G74U,0.305
23,A45G A51G,0.612
24,A43U U60A,0.594

row,Variant,self-cleavage
1,C44G G73U,0.397
2,C44A A56U,0.614
3,A45U A51U,0.767
4,C44G C64A,0.745
5,A43G G54C,0.511
6,A43G G54U,0.514
7,C44U G67U,0.499
8,A43G U60C,0.415
9,A45U G81C,0.287
10,A45U G81U,0.277
11,C44U G53A,0.709
12,A43U U79C,0.127
13,A43G G53A,0.532
14,U46A G55U,0.85
15,U46A G55C,0.682
16,A45G G73A,0.966
17,U46C G76C,0.415
18,A43G G50U,0.658
19,U46G A78U,0.0573
20,U46G U72A,0.266
21,U46A G80U,0.176
22,U46A G80A,0.147
